According to patent publication US20130171147A1:
One block for each binder: values may come before it.

Biological target: rat prolactin receptor (PRLR) on Nb2 lymphoma cells (rat) (UniProt P05710)
Experiment: FACS on rat lymphoma cell line Nb2, IgG1

EC50: 1200 pM
B1: 001-E06 (human IgG1) (antibody, V domains shown)
VH: QVELLESGGGLVQPGGSLRLSCAASGFTFSSYWMSWVRQAPGKGLEWVSSVSDTGTDTHYADSVKGRFTISRDNSKNTLYLQMNSLRAEDTAVYYCAKTPLAYSSGWYYFDYWGQGTLVTVSS
VL: DIVLTQPPSASGTPGQRVTISCSGSSSNIGSNTVNWYQQLPGTAPKLLIYRNYQRPSGVPDRFSGSKSGTSASLAISGLRSEDEADYYCQSYDSSLSGSVFGGGTKLTVLG

EC50: 300 pM
B2: HE06.642 (antibody, IgG1, V domains shown)
VH: EVQLVESGGGLVQPGGSLRLSCAVSGFTFSSYGMSWVRQAPGKGLEWVATVSSGGTYTYYPDSVKGRFTISRDNSKNTLYLQMNSLRAEDTAVYYCARHRGNYYATYYYAMDYWGQGTLVTVSS
VL: DIVLTQSPDSLAVSLGERATINCKASKSVSTSGYTYMHWYQQKPGQPPKLLIYLASNRESGVPDRFSGSGSGTDFTLTISPVQAEDVATYYCQHSGELPPSFGQGTKLEIKR
